According to patent US6875851:

Key:
[1] = molecular target: Peptide 1
[2] = molecular target: T1, Peptide 10
T1 chain: VEPIPY

[3] = molecular target: T2, Peptide 11
T2 chain: RGPFPI

[4] = molecular target: T3, Peptide 12
T3 chain: ARPAK

[5] = molecular target: T4, Peptide 13
T4 chain: PNPNQGNFI

[6] = molecular target: T5, Peptide 14
T5 chain: RHPKYKTEL

[7] = molecular target: T6, Peptide 15
T6 chain: GVPKTHLEL

[8] = molecular target: T7, Peptide 16
T7 chain: KGPPAALTL

[9] = molecular target: T8, Peptide 18
T8 chain: FLREPVIFL

[10] = molecular target: T9, Peptide 19
T9 chain: GIRPYEILA

[11] = molecular target: T10, Peptide 22
T10 chain: KIAGYHLEL

[12] = molecular target: T11, Peptide 2
T11 chain: RPPGF

[13] = molecular target: T12, Peptide 5
T12 chain: RPGFSPFR

[14] = molecular target: T13, Peptide 8
T13 chain: VPPGEDSK

[15] = molecular target: T14, Peptide 9
T14 chain: VPPGEDSK

B1: prolyl-tripeptidyl peptidase A from P. gingivalis (protein)
chain: QSPETSGKEFTLEQLMPGGKEFYNFYPEYVVGLQWMGDNYVFIEGDDLVFNKANGKSAQTTRFSAADLNALMPEGCKFQTTDAFPSFRTLDAGRGLVVLFTQGGLVGFDMLARKVTYLFDTNEETASLDFSPVGDRVAYVRNHNLYIARGGKLGEGMSRAIAVTIDGTETLVYGQAVHQREFGIEKGTFWSPKGSCLAFYRMDQSMVKPTPIVDYHPLEAESKPLYYPMAGTPSHHVTVGIYHLATGKTVYLQTGEPKEKFLTNLSWSPDENILYVAEVNRAQNECKVNAYDAETGRFVRTLFVETDKHYVEPLHPLTFLPGSNNQFIWQSRRDGWNHLYLYDTTGRLIRQVTKGEWEVTNFAGFDPKGTRLYFESTEASPLERHFYCIDIKGGKTKDLTPESGMHRTQLSPDGSAIIDIFQSPTVPRKVTVTNIGKGSHTLLEAKNPDTGYAMPEIRTGTIMAADGQTPLYYKLTMPLHFDPAKKYPVIVYVYGGPHAQLVTKTWRSSVGGWDIYMAQKGYAVFTVDSRGSANRGAAFEQVIHRRLGQTEMADQMCGVDFLKSQSWVDADRIGVHGWSYGGFMTTNLMLTHGDVFKVGVAGGPVIDWNRYEIMYGERYFDAPQENPEGYDAANLLKRAGDLKGRLMLIHGAIDPVVVWQHSLLFLDACVKARTYPDYYVYPSHEHNVMGPDRVHLYETITRYFTDHL
B1 was tested, and the Cleavage site [1] was “H-Arg-Pro-Pro-↓-Gly-Phe-Ser-Pro-Phe-Arg”, the Cleavage site [2] was “H-Val-Glu-Pro-↓-Ile-Pro-Tyr” and the Cleavage site [3] was “H-Arg-Gly-Pro-↓-Phe-Pro-Ile”. For the same protein, the Cleavage site [4] was “H-Ala-Arg-Pro-↓-Ala-D-Lys-amide”, the Cleavage site [5] was “H-Pro-Asn-Pro-↓-Asn-Gln-Gly-Asn-Phe-Ile” and the Cleavage site [6] was “H-Arg-His-Pro-↓-Lys-Tyr-Lys-Thr-Glu-Leu”. The Cleavage site [7] was “H-Gly-Val-Pro-↓-Lys-Thr-His-Leu-Glu-Leu”, the “Cleavage site (no ↓ printed: not cleaved)” value [8] was “H-Lys-Gly-Pro-Pro-Ala-Ala-Leu-Thr-Leu” and the “Cleavage site (no ↓ printed: not cleaved)” value [9] was “H-Phe-Leu-Arg-Glu-Pro-Val-Ile-Phe-Leu”. For the same protein, the “Cleavage site (no ↓ printed: not cleaved)” value [10] was “H-Gly-Ile-Arg-Pro-Tyr-Glu-Ile-Leu-Ala”, the “Cleavage site (no ↓ printed: not cleaved)” value [11] was “H-Lys-Ile-Ala-Gly-Tyr-His-Leu-Glu-Leu” and the Cleavage site [12] was “H-Arg-Pro-Pro-↓-Gly-Phe”. For the same protein, the “Cleavage site (no ↓ printed: not cleaved)” value [13] was “H-Arg-Pro-Hyp-Gly-Phe-Ser-Pro-Phe-Arg”, the Cleavage site [14] was “H-Val-Pro-Pro-↓-Gly-Glu-Asp-Ser-Lys” and the “Cleavage site (no ↓ printed: not cleaved)” value [15] was “Ac-Val-Pro-Pro-Gly-Glu-Asp-Ser-Lys”.
